{
  "source": "patent US7553821B2",
  "about": "“Methods for selectively modulating survivin apoptosis pathways” (Yale University, priority 2000, dated 2009)",
  "target": "T1, p34^cdc2-cyclin B1 (Homo sapiens, UniProt P06493)",
  "T1 construct": "host or cells: baculovirus expression system",
  "T1 sequence (P06493 whole entry)": "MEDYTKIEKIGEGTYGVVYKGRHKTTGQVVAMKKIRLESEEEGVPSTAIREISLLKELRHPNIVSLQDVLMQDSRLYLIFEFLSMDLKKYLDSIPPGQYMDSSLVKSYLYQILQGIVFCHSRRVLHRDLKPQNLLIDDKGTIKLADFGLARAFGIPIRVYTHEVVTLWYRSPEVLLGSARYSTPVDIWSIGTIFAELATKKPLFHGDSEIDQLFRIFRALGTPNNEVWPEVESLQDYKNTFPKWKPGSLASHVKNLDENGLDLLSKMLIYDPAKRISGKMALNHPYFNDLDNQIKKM",
  "T1 sequence (P14635 whole entry partner)": "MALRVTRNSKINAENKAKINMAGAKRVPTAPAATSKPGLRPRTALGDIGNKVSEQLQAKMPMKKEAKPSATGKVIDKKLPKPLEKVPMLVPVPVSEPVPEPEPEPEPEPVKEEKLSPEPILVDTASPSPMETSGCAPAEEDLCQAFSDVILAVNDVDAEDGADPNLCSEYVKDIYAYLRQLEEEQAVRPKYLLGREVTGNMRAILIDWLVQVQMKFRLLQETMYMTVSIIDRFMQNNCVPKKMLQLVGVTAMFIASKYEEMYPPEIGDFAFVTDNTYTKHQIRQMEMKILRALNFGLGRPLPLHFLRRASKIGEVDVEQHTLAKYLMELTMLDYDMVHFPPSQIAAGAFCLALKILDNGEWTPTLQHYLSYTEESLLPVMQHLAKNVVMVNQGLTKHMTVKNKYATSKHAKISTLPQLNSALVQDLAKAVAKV",
  "assay": "In vitro kinase assay with p34cdc2-cyclin B1",
  "assay_type": "biochemical",
  "conditions": "recombinant protein as substrate, 32P-ATP, 30 min at 30° C., autoradiography",
  "description": "FIG. 1B. In vitro kinase assay. Wild type (WT) survivin, survivin(T34A) (T34A), or control (H1) were incubated with baculovirus-expressed p34^cdc2-cyclin B1 or cdk2-cyclin E in kinase buffer plus 10 μCi γ-^32P-ATP for 30 min at 30° C. Samples were separated by SDS gel electrophoresis and radioactive bands were visualized by autoradiography. Equal protein loading was confirmed by Coomassie blue staining of the gel.\nTransfection experiments. For transient transfection, HeLa cells in C-6 tissue culture plates (Costar, Cambridge, Mass.) at ˜60-70% confluency, were incubated in 1 ml of serum-free OptiMEM medium (Life Technologies, Gaithersburg, Md.) for 20 min, and transfected with 2.5 μg of the various plasmid cDNAs plus 9 μl Lipofectamine (Life Technologies). After a 5 h incubation at 37° C., the mixture was aspirated and substituted with complete growth medium for 48-72 h. To generate stable YUSAC-2 transfectants, a survivin(T34A) cDNA was inserted into the HindIII-SpeI sites of the pTet-splice vector (Dr. D. Schatz, Yale University School of Medicine), downstream of the regulatory sequences of the Tet-resistance operon (TetO). […] Gated GFP-expressing cells were analyzed for DNA content by flow cytometry on a FACSort (Becton Dickinson, San Jose, Calif.) using a Cell Quest software. […]",
  "data": [
    {"substance": "survivin(T34A): dominant-negative, non-phosphorylatable survivin mutant with Thr34→Ala substitution, expressed from transfected cDNA (also HA- or GFP-tagged)", "values": [
      {"measurement": "phosphorylation by p34^cdc2-cyclin B1", "value": "abolished phosphorylation"}
    ]}
  ]
}
